test: soluble on expression in E. coli; label from the status in PepcDB or PDB records

| Sequence | soluble on expression in E. coli |
| --- | --- |
| MSLATAAPFVSDQAEAKGFVEGSTLDLKLRNYYYNRDRKNNPAPGGRSDKDWTQGIWANFSTGYTQGTIGVAAEAFGYGALRLWGPDKYSGSGNLVTDSNGDNEATQGKFGGAVKFRVSKTELKVGDMQPTSPVFAVGGSRILPQTASGLSLQSSEIAGLDLEAGHFYSGTSQDDTSHNGSIWATYANGFNGLKANSADFLGGKYAITDGLGVAFYAAKLEDIWDQYYGNVNYALPLGNDQSLAFDVNLYRTLDEGSSKADSINNTTYSASAAYSFLAAHTVTVAYQKVDGDTPFDYIGIGDNNRGGDSIFLANSVQYSDFNGPGEKSWQIRYDLNMTPYGVPGLSFMTRYLNGDNIDGTKVDASSLYANMYGADGKHHETNLEAKYVVQAGPAKDLSFRMRQAWHRGNDAQSDGDVNEFRLIVDYPISILKGIITITTDPNSSSVDKLAAALEHHHHHH | soluble |
| MSLATKVTLKDVAARAGVSYQTVSKVLNGEMQVAPETMERIQAAVQELGYRPNRIARNMRAGRSFMIGYSWTQTEPGQVNHILDQFLSSMVREAGAVNYFVLPFPFSEDRSQIDIYRDLIRSGNVDGFVLSSINYNDPRVQFLLKQKFPFVAFGRSNPDWDFAWVDIDGTAGTRQAVEYLIGRGHRRIAILAWPEDSRVGNDRLQGYLEAMQTAQLPIETGYILRGEGTFEVGRAMTLHLLDLSPERRPTAIMTLNDTMAIGAMAAARERGLTIGTDLAIIGFDDAPMVQYLFPPLSSVRQPIAEAGRKCIELLVAIVEGREPEQKHILLQPSLIIRASEGHHHHHH | soluble |
| MSLCELLGMSANVPTDICFSFTGLMQRGGKTGPHRDGWGIAFYEGKGFRTFKDPNPSSQSKIAELVQQYPIKSRAVISHIRQANRGGVNLENTHPFTRELWGQYWTFAHNGQLTGYQNLVTGRHRPVGETDSELAFCWLLNQMEQCYPEGPQDWPEMLRYVAQCCDELRALGVFNMLLSNGEYVMAYCTNHLYWITRRAPFGCAALLDEDVEINFQEETTPNDVVSVIATQPLTGNETWQRMKPGQFAFFHFGERIEDNAHVLMDVGFAPNRPGCQAPSQPLDEGGSHHHHHH | soluble |
| MSLCQEKEQDIQKEISYAEKHNNQRRIEGLNKALSEVRANCTDSKLRAEHQKKIAEQKEEVAERQRDLAEAKAKGDADKIDKRERKLAEAQDELKKLEHHHHHH | not soluble |
| MSLCTPLTSYSGFQAIEAKPAEMKVGEDSKSTLMEKLGSPSAVSTFDNNTWYYISQTTDRVAFYMPRVIKRDVVAIKFNPADEKVASVDTYTLQDGKVIAYNGRETPTRGREMTILEQLLGNVGRGGMLPQDDTAPGQRPGDREGHHHHHH | soluble |
| MSLDATYVETSTSKLGCRSAVADQVEKFQFGQYECDAPHKLYNSLIDNAKKFIESPDFILLGGDLIAHGLNVTKQMLIDNFNNITNPIEKKYPNTKIYITLGNNDFQKNYGSFDTDLTDFETVFEIFGKWMNTEQAETFKKGGYYYADFPSSNFRFLFLNTVIYSRKRTFNETLTDPYDQFAWIRKMYKDAVQKGYKVGIALHIPPGVVYTDNKVGWNLKYINTFAEIMKECDFSFIISGHSHTDMILPLYTPNSDTDNILYSLSAPSVSPTHYNNPGFRHYLLDQEIIKDFIQYYADIMLNPSELNWEIEYKFSEAYKTQNITRNSINDAVKWIRSTGEGQWRYRERVYSREGHHHHHH | soluble |
| MSLDDSVFVGHLKDVTGATGFVGKLYGEGVNDALVWINAHGGIDGTRLDFESVDYAYEVPRAIALYKKWTSQNKMVALQGWGTGDTEALISFVAKDKIPVLSGSYSGHLTDPTGKNPKTQKPAPYNFFYGPSYSDACRALVQWAEGDWKAKGKEGKPKFIHAGDNHPYPNAPKEACADFATELGFEVLPPVVVSLKPGDFKAQCLTIKQSGANYVYVANLGPSVVSLVKSCKTVGTDAQYMANIWGGDSETQKTLGADGDGYVFVAANAFWGDDAPGLALVREIAGSETPRTHHYIRGVCSTFYMKEAMEWAKAHGGLTGESIRNAMYARKDWVPKGLEGVCIPSTWTPEDHRGMTKVFIYQMQNGSEIHKIAETDLPRRDDWLGYEGHHHHHH | not soluble |
| MSLDDYTVRVRVPGGEWKDLFEYNVQVDMDRVQDASMVQFDMGSLVEVMVKKNNGTIHEVDIRPQVNDIRYVQYKNVITFMLDKPRYLSVEFNGDRLHNLHVFANPMETETYSKEEKGVMYFGPGVHRPKDLPNNQIRIPSNTTVYLAPGAVVKAKLWVDKAENVRIVGRGILDHPIRGIEITDSKNVVVDGITVINPDHYTVFGGGSVGVTIRNLKSFSCKGWSDGIDMMCCHDVLIDNVFMRNSDDCIALYNHRWNWWGGSDNITVQNSILWADIAHPINVGGHGDPESLIGETIENLIFRNIDILEHDEDDVPYQGCMAIDAGDRNRVKNILFEDIRVESIQEGKLFHINIRFNPKYDKQPGQSIDGVTFRNITYNGVGENPSLIKGLDKERMVRNITFENVVVNGEKIKDLKGFITNEYIEGIKIKEGHHHHHH | not soluble |
| MSLDEIKSGKYKHGDKLPTEKELMERFNASRETVRKALERLVVKNLVIRKPGLGTFVNIEKKNKVVGILVQQITSYIFPYIALGAEEVLFANGYKMLLGNASEDPHKERQIINEWLEVGVDGLIIDPVYSATKRSNRDLIEDMAKKGTKVVLVHTNWDIEGVGSVVLDDWYGGEKAAEIFYQYGHRNVAVLYKTIHLPSVVRAQAFLKRGRELGFEKVHEKSFHVSEFTGIVMQSAFELLSLPKDQRPTAVFCYNDATALQFFLAAKRMGLKIPEDVSVIGFDDAPIGDFREILTTFEHPKEEVGKKAVEILLKMIDGEKPEKYVFKPKLIMRESVTYPKEGHHHHHH | soluble |
| MSLDEIVGIGFKRADAIARNMGVHPHSKYRIHSGIKYMLNTFQGEGHTYAPGVKLIQRAEELLRVEEGQVEGAIQELALNQEIQLERIDDEIIVYSMPYYYAESNVCKKLISLAQVELDPIEMDIDEELQKIEQAEEMTLAKQQKEAIKEAIENGISVITGGPGTGKTTTINSLIKVFEKLELKMLLAAPTGRASKRMTEATGKESKTIHRLLELGFGDDREGMLFQRNEDNPLDCHVIIIDEVSMVDIILMNSLMKSIARGTRVVLVGDVDQLPSVGAGNVLRDIIDSKVVKTIRLTEIFRQAQESMIVVNAHRINQGLYPQLNEKQKDFYFMKRNAKEDVLATVVELVRDRLPKHYQFDALRDIQVLTPMKKGETGTLNLNKELQAALNPPNVSKAEKDLKEKIFREGDKVMQIKNNYTLKWRCLDPMAEEQKGEGVFNGDIGYVQSIDTEAEELVILFDDQKQVNYSFTQLDELELAYSVTIHKSQGSEFPVVVIPITWGPPMLLTRNLLYTAVTRARSLVVLVGVESYLKKMVDNNKIIERYSGLGRRLGKYFEEGHHHHHH | not soluble |
| MSLDENIVKTGSNEMELVDFRIFKQGHDKVYEGIYGVNVSKVREIIKIPSLTELPGVPDYIEGIFDLRGVVIPVVNLAKWMQITEPESTMLKPRVIITEFSNILIGFIVHEAKRIRRINWKDIEPATFSTGSGALDKGKITGVTRIENDEVLLILDLESVVEDLGIYAPKTDIDFGKIEKFTGTALILDDSMTARKRVKEMMQQMGFQVVEAKDGVEGINKLEELSQIYGESLNDTLKIIVSDVEMPQMDGFHFAARIKEDPRFKDIPIVFNSSLSNEFMNEKGVQEAGGEGYLVKFNASDFFNEIAKVIKKHQSQEGHHHHHH | soluble |
| MSLDFATEYVYPAFSELTGTDKIVAFGDHSHKCPIYVPQTPPCTAECPAGEDIRAINRFLNGTDPSDDPLKSAWETATDTNPFPAVMGRICPHPCQSKCNRGVHDESVAINAVEQVLGNYGIEHNLKLKGPGADTGKRVAIIGGGPAGLSAAYQLRRKGHAVTIYDANEKLGGMVLYGIMGYRVDRKVLEAEIGRIIELGVETKMGVTIGKDITLEQLEAEYDAVFIAVGAQKGRALPVPGFEGTPGATNAIDFLKSYEVLGDDIPVGKHVVVIGDGNVSMDVARLALRLGSQATIISGVPREEMACFENEFDDAKNEGTTMHFLTGTVEVLGGASGVTGLRCTKMVKKEKGEEGWNSPIPFLRYKSNGESFEIEADMVVAAIGQATDLSGLGSAASGPWLKVDRNFRIPGREKLFGGGDALKVDLITTAVGHGRKAAYAIDAFLKGEPMPEEPYREITKPHKQDLLYFLHTPQAKRTSIKPEVVVGNHDELLEALTPEQAVTESKRCMSCGFCFDCKQCVSFCPQEAITRFRDNPAGEKVYTNYAKCVGCHLCSLVCPCGYIQMGMGDGEGHHHHHH | not soluble |
| MSLDGTVLVADDDRTIRTVLTQALTRAGCKVHATSSLTTLMRWVAEGKGDVVISDVVMPDGNGLEMLPKIAQDRPGLPVIVISAQNTIMTAIQAAEAEAYDYLPKPFDLPDLMKRTARALEQKRRTVSSEPREEGAERPDELPLVGRTPAMQALYRLVAKVMNTDLPVMISGESGTGKSLIARTIHDFSDRRTLPFISVTASDLMDLEGPARVLARVKGGTLLIDEIADIGDELQGRIVRMMDAPGDYVPRFMATSQGDPARAMEAGKLRRDLYYRLCGAPIHVPALRERVDDIPLLTEYFLAKAERDGAPKRWLGAGAAELFRIYSWPGNVRQLENAVRRLSLISRAEEISRTEVEQVLGNQPELEPALGGRGDSEKLSASVARHLQRYFDLHGNVLPPPGLYQRILREVEAPLIEIALEASGGNQAKCADLLGINRNTLRKKITDLDIEVTREGHHHHHH | soluble |
| MSLDKWEMERTDITMKHKLGGGQFGEVYEGVWKKYSLTVAVKTLKEDTMEVEEFLKEAAVMKEIKHPNLVQLLGVCTREPPFYIITEFMTYGNLLDYLRECNRQEVSAVVLLYMATQISSAMEYLEKKNFIHRDLAARNCLVGENHLVKVADFGLSRLMTGDTYTAHAGAKFPIKWTAPESLAYNKFSIKSDVWAFGVLLWEIATYGMSPYPGIDPSQVYELLEKDYRMERPEGCPEKVYELMRACWQWNPSDRPSFAEIHQAFETMFQESSISDEVEKELGKRGEGHHHHHH | soluble |
| MSLDLKITNGFYDPSHLSYEVVERKGLGHPDTLADGIAEQIEIDYSLYCLDKFGVIPHHNFDKIIIRGGHSVQDFGGSDFIEPIKIIFLGRASKKCFNSSIPLFKIQKKAATKYLNRILPNLDVENYVEFETLTSDFTTKTNWFSPEAIEDLPEYLDVPKANDTATMISYWPLTISEELALMIEGYFYKLDKNELPTPRFTKMGGDIKVMVVRNDLEYSIRINFPLISKFFNNDIESQLYVDKHVEKIKKYIEQKYKNISFSIDYHYYLTTTGSCIDFGEEGAVGRGNKTHGIISSFRPNTMEAPAGKNCTYFVGKVWGFLSDTIAKEIYEAFNTPCQIIMQLNIGSKLYRPTHLFIQTEESVDQERVLEIVNRHLNNGKQNTNLILSTQHFIPKTNVYDGEGHHHHHH | soluble |
| MSLDLNQIKAVVFDLEGTLLDRVKSREKFIEEQYERFHDYLIHVQLADFKKAFIELDDDEDNDKPDLYKEIIKRFHVDRLTWKDLFNDFEMHFYRYVFPYYDTLYTLEKLSQKGFQIGVIANGKSKIKQFRLHSLGLMHVINYLSTSETVGFRKPHPKIFEDMIDQLGVLPEQIMYVGDDALNDVAPARAMGMVSVWYKQEDAEIEPLEEEVDFTITTVEELLTILPIKNDNKGENYGSIYEGHHHHHH | soluble |

— the DeepSol protein solubility set
